Reference: patent US20120023600A1 (Novartis, published 2012)
Blank lines part the entries; values can stand above or below the binder they belong to.

What was measured:
[1] = target: T1, cynomolgus DKK1 (cynomolgus monkey (Macaca fascicularis), UniProt A0A7N9IE82 32-266); assay: SPR (Biacore), DKK1 immobilised on CM5 chip, Fab as analyte
T1 construct: also called cyno DKK1; monkey DKK1 (Novartis)
T1 sequence: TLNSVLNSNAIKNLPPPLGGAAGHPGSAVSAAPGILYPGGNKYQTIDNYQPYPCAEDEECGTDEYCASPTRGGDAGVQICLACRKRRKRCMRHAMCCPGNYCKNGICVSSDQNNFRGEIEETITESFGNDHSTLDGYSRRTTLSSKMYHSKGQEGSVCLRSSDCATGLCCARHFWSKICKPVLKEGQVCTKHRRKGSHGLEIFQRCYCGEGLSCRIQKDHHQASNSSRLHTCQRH
Protocol: (§1) Using these clones, kinetic SPR analysis is performed on a. […] The Fab preparations are applied in concentration series of 16-500 nM at a flow rate of 20 μl/min. Association phase is set to 60 s and dissociation phase to 120 s.

[2] = target: T2, recombinant human DKK1 (human, UniProt O94907 32-266); assay: as above
T2 construct: also called Dickkopf-1; rhDKK1
T2 sequence: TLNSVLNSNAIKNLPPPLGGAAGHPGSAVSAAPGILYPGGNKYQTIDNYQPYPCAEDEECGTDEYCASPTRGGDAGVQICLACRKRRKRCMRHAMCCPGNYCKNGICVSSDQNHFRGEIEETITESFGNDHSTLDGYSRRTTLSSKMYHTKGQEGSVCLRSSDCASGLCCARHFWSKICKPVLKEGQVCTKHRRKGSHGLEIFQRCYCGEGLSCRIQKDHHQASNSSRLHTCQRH
Protocol: as §1

[3] = target: T3, mouse DKK1 (R&D Systems) (mouse, UniProt O54908 32-272); assay: Cross-reactivity mouse (grade in Table 4)
T3 construct: Bought protein
T3 sequence (looked up): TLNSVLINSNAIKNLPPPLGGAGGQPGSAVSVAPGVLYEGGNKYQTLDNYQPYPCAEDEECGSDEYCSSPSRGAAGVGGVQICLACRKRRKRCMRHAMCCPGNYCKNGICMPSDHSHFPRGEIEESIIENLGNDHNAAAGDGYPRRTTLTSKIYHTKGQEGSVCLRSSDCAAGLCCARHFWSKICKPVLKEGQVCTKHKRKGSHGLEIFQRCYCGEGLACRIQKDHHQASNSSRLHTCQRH

[4] = target: T1, cynomolgus DKK1; assay: SPR (Biacore), DKK1 immobilised on CM5 chip, Fab as analyte; remark: listed apart in the source
Protocol: as §1

[5] = target: T2, recombinant human DKK1; assay: as above; remark: listed apart in the source
Protocol: as §1

[6] = target: T4, DKK1-APP (human, UniProt O94907 32-266); assay: cell-based or functional assay
T4 sequence: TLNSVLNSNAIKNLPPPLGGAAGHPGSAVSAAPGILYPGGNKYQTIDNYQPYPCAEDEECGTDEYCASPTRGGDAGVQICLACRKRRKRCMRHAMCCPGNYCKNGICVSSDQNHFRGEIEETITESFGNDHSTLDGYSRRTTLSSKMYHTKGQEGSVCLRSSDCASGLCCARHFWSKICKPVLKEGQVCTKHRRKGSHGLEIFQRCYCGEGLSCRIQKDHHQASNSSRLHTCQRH

[7] = target: T4, DKK1-APP; assay: cell-based or functional assay; remark: listed apart in the source
[8] = target: T1, cynomolgus DKK1; assay: SPR (Biacore), DKK1 immobilised on CM5 chip, Fab as analyte; remark: listed apart in the source
Protocol: as §1

[9] = target: T2, recombinant human DKK1; assay: as above; remark: listed apart in the source
Protocol: as §1

[10] = target: T5, rat DKK1 (Novartis) (rat, UniProt A6I0Z0 32-270); assay: cell-based or functional assay
T5 sequence: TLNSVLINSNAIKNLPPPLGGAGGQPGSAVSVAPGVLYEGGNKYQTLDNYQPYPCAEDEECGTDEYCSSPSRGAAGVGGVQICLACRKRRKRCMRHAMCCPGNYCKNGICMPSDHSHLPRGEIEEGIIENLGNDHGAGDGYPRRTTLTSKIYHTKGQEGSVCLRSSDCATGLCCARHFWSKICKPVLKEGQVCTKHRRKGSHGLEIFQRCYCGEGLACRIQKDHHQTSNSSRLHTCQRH

[11] = target: T1, cynomolgus DKK1; assay: cell-based or functional assay
[12] = target: T3, mouse DKK1 (R&D Systems); assay: cell-based or functional assay
[13] = target: T2, recombinant human DKK1; assay: cell-based or functional assay
[14] = target: T2, recombinant human DKK1; assay: cell-based or functional assay; remark: listed apart in the source
[15] = target: T6, N-linked deglycosylated rhDKK1 (human, UniProt O94907 32-266, N-linked glycan removed with the enzyme PNGase F); assay: SPR (Biacore T100)
T6 construct: Same HIS-tagged HEK protein as WT rhDKK1 (Batch BTP7757) after PNGase F treatment; also called N-DEGLY DKK1; DKK1 (N-degly)
T6 sequence: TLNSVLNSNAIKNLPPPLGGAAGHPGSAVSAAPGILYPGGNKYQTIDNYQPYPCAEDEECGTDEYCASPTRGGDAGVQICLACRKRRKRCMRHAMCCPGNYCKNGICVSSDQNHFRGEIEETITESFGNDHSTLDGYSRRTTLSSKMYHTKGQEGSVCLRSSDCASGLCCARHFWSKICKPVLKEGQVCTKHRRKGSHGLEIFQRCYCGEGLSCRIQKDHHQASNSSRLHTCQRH

[16] = target: T7, human DKK4 (human, UniProt Q9UBT3 19-224); assay: SPR (Biacore T100)
T7 construct: also called Dickkopf-4
T7 sequence: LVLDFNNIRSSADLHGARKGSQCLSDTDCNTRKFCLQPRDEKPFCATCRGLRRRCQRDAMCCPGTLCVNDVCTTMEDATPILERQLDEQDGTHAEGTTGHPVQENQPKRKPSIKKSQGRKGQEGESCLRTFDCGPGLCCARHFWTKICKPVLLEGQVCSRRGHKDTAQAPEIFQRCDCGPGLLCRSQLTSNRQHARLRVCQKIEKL

[17] = target: human DKK3 (human, UniProt Q9UBP4 22-350); assay: SPR (Biacore T100); NSB = No Significant binding, not detectable above background
Sequence of human DKK3 (Q9UBP4 other isoform, or with tags, fused parts or gaps limits assumed): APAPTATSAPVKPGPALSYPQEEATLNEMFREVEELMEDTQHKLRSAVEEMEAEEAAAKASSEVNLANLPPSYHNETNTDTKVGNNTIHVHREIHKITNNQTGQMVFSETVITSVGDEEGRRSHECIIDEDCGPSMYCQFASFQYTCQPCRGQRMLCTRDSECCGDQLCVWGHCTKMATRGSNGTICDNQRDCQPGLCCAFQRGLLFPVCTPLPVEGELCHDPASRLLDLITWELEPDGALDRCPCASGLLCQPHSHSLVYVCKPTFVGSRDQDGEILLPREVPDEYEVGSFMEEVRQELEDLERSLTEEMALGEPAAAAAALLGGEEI

[18] = target: T8, carboxyl terminal truncated DKK1 (deltaC, residues 1-185) with C-terminal HA epitope (Homo sapiens (Human), UniProt O94907 32-185); assay: immunoprecipitation from conditioned medium of transfected Hek293 cells, protein G beads, SDS-PAGE, anti-HA blot [panel B.]
T8 construct: Secreted into conditioned medium of transfected Hek293 cells; Contains Cys-1 but not Cys-2
T8 sequence: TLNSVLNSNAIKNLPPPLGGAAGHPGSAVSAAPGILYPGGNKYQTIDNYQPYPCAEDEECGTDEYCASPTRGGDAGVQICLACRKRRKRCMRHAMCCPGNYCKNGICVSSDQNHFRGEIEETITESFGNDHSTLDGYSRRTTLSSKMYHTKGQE
Text: Full-length (FL, containing residues 1-266), carboxyl terminal truncated (ΔC, containing residues 1-185), and amino terminal truncated (ΔN, containing residues 1-60 plus residues 157-266), are fused with an HA epitope at their C termini, and Cloned into a mammalian expression vector under the control of the cytomegalovirus (CMV) promoter. […] 1/10 of total input is loaded as control.

[19] = target: T9, wild type (WT) rhDKK1 (HEK HIS epitope tagged Batch# BTP7757) (human, UniProt O94907 32-266, N-glycosylated (one theoretical N-linked site at amino acid 256)); assay: SPR, Biacore T100, CM5 chip; antibody captured on immobilised anti-human IgG1 Fc, rhDKK1 0.195-6.25 nM as analyte; 1:1 binding with mass transport; mean of three experiments with standard deviation [6B]
T9 construct: Made in HEK cells; also called WT DKK1; rhDKK1 (recombinant human DKK1) (Batch BTP7757)
T9 sequence: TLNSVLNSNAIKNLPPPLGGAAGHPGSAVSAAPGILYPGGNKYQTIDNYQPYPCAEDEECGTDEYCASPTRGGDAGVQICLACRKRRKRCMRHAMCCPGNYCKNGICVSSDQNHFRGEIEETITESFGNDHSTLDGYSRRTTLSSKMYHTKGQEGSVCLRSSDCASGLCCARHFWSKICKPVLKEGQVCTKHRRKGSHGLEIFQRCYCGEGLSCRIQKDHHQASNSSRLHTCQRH
Protocol: (§2) FIG. 6. […] Anti-Human IgG1 Fc (Jackson Immuno Research, Cat#109-006-098) is immobilized onto each flow cell, followed by capture of a lead candidate at an expected capture of about 100 RU. […] The normalized data (background subtracted) are fit to a 1:1 binding with mass transport model using Kinetics analysis in BIA evaluation 1.0 software. This experiment is carried out in triplicate, and data presented are the average of these three experiments with standard deviation.

[20] = target: T10, human DKK2 (human, UniProt Q9UBU2 34-259); assay: immunoprecipitation
T10 construct: tested by immunoprecipitation
T10 sequence: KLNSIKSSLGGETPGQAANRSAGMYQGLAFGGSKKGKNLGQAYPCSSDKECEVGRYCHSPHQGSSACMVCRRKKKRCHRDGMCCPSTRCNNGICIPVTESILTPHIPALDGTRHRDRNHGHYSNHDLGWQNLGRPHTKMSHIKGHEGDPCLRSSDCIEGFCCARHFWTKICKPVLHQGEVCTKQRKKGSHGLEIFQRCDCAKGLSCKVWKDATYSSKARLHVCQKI

[21] = target: T6, N-linked deglycosylated rhDKK1; assay: SPR (Biacore T100); remark: listed apart in the source
[22] = target: T9, wild type (WT) rhDKK1 (HEK HIS epitope …); assay: SPR (Biacore T100)
[23] = target: T7, human DKK4; assay: SPR (Biacore T100), antibody captured by anti-human IgG1 Fc, DKK in flow; average of three experiments
Protocol: as §2

[24] = target: T9, wild type (WT) rhDKK1 (HEK HIS epitope …); assay: as above
Protocol: as §2

[25] = target: T5, rat DKK1 (Novartis); assay: solution equilibrium titration (SET), ECL (BioVeris), IgG
Text: (§3) Electrochemiluminescence (ECL) based affinity determination in solution and data evaluation are basically performed as described by [Haenel et al., 2005], the binding fit model is applied as modified according to [Piehler et al., 1997]). […] Biotinylated human. […] Subsequently, the concentration of unbound. IgG is quantified via ECL detection using the M-384 SERIES® analyzer (BioVeris, Europe).

[26] = target: T1, cynomolgus DKK1; assay: as above
Text: as §3

[27] = target: T3, mouse DKK1 (R&D Systems); assay: as above
Text: as §3

[28] = target: T2, recombinant human DKK1; assay: as above
Text: as §3

- Kd [1]: 1500 pM
- Kd [2]: 1600 pM
- binding result [3]: binds
- Kd [4]: 1500 pM
- Kd [5]: 1600 pM
- EC50 [6]: 39000 pM
- Luciferase reporter assay; EC50 [7]: 39000 pM
- Kd [8]: 1500 pM
- Kd [9]: 1600 pM
B1: MOR04455 (Fab, V domains shown)
VH: QVQLVESGGGLVQPGGSLRLSCAASGFTFSSYGMSWVRQAPGKGLEWVSGISGSGSYTYYADSVKGRFTISRDNSKNTLYLQMNSLRAEDTAVYYCARHYMDHWGQGTLVTVSS
VL: DIQMTQSPSSLSASVGDRVTITCRASQDISNYLHWYQQKPGKAPKLLIYGASNLQSGVPSRFSGSGSGTDFTLTISSLQPEDFAVYYCQQYDSIPMTFGQGTKVEIKR
notes: Fab with C-terminal FLAG and 6xHis tags

- Reactivation of wnt3a signaling (TOPFlash) EC50 (pM) [10]: 255 pM
- Reactivation of wnt3a signaling (TOPFlash) EC50 (pM) [11]: 54.2 pM
- Reactivation of wnt3a signaling (TOPFlash) EC50 (pM) [12]: 60.5 pM
- Reactivation of wnt3a signaling (TOPFlash) EC50 (pM) [13]: 80.6 pM
- apparent EC50, TCF/LEF luciferase reporter (SuperTopflash, Kremen) assay [14]: 160 pM
- fold lower affinity than for WT DKK1 [15]: 100 fold
- fold lower affinity than for DKK1 [16]: ~100 fold
- binding result [17]: no binding
- binding result [18]: no binding
- koff [19]: 9e-06 s⁻¹
- kon [19]: 4.6e+06 M⁻¹ s⁻¹
- binding result [20]: no binding
- Kd [21]: 216 pM
- koff [21]: 0.000307 s⁻¹
- kon [21]: 1.42e+06 M⁻¹ s⁻¹
- Kd [22]: 3.11 pM
- koff [22]: 2.32e-05 s⁻¹
- kon [22]: 7.45e+06 M⁻¹ s⁻¹
- Kd [23]: 297 pM
- Kd [24]: 2 pM
B2: anti-DKK1/4 antibody (antibody, V domains shown)
VH: QVQLVESGGGLVQPGGSLRLSCAASGFTFSSYWMSWVRQAPGKGLEWVSGISYSGSNTHYADSVKGRFTISRDNSKNTLYLQMNSLRAEDTAVYYCARMGIDLDYWGQGTLVTVSS
VL: DIALTQPASVSGSPGQSITISCTGTSSDVGGFNYVSWYQQHPGKAPKLMIHDGSNRPSGVSNRFSGSKSGNTASLTISGLQAEDEADYYCQSWDVSPITAVFGGGTKLTVLG
notes: also called neutralizing anti-DKK1/4 antibody; NVP-anti-DKK1/4 antibody-NX

- Kd [25]: 16 pM
- Kd [26]: 7 pM
- Kd [27]: 10 pM
- Kd [28]: 17 pM
B3: MOR4910 IgG (antibody, V domains shown)
VH: QVQLVESGGGLVQPGGSLRLSCAASGFTFSSYWMSWVRQAPGKGLEWVSGISYSGSNTHYADSVKGRFTISRDNSKNTLYLQMNSLRAEDTAVYYCARMGIDLDYWGQGTLVTVSS
VL: DIALTQPASVSGSPGQSITISCTGTSSDVGGFNYVSWYQQHPGKAPKLMIHDGSNRPSGVSNRFSGSKSGNTASLTISGLQAEDEADYYCQSWDVSPITAVFGGGTKLTVLG
notes: also called MOR04910 IgG
